B2: recombinant ClpP1 (rClpP1) of Leptospira interrogans, LIC11417 (enzyme)
chain: not shown
B3: recombinant ClpP2 (rClpP2) of Leptospira interrogans, LIC11951 (enzyme, UniProt Q72R01 1-197, looked up)
chain: MPETEKIAEVFEELTGSKISKNFLDHRKIFLWGPVTDESSKDLVGKLLYLEMKDPGKKITFYINSPGGVVTSGMTVFDTIKMISSPVHTVCMGMAASMGSVLLAAGTKGERSIWPNGKVMIHQPSIGGQIVAPATDLKIHAEEILKTKTKLNQILADACGHPISKLEEDTDRDYYMDAEEAIKYGIVDKLATKIDFN

The series “native gel or EMSA” concerns the molecule itself. In words: native gel or EMSA. (In general: A gel shift assay detects complexes by their altered migration in electrophoresis.)
The target of series [1] is B3. The series can be described thus: ITC.
The series “SEC” concerns the molecule itself. In words: SEC. (Size exclusion chromatography separates by hydrodynamic size, large species first.)
The series “cross-linking” deals with the molecule itself. The series can be described thus: cross-linking.
Series [2] deals with B2. The series can be described thus: ITC. A general note: Isothermal titration calorimetry measures the heat released or taken up as one component is titrated into another.

B1: rClpP1S98A, catalytic serine mutant of recombinant ClpP1 of Leptospira interrogans (enzyme)
chain: not shown
Regarding B1, in the series “native gel or EMSA”, the binding result is on record as “binds”.

Take B2: in series [1], the dH was -30200 ± 2640 cal^–1 mol^–1. For the same molecule, the “stoichiometry N” value stood at 0.945 ± 0.05 in series [1], 21 in the series “native gel or EMSA”, 14 in the series “SEC” and 7 in the series “cross-linking”.

For the molecule B3, the Kd in series [2] was determined as 2020 ± 100 nM. Moreover, the “stoichiometry N” value in “native gel or EMSA” is 14; in the series “cross-linking”, 7.

B4: rClpP2S97A, catalytic serine mutant of recombinant ClpP2 of Leptospira interrogans (enzyme, UniProt Q72R01 1-197, looked up)
chain: MPETEKIAEVFEELTGSKISKNFLDHRKIFLWGPVTDESSKDLVGKLLYLEMKDPGKKITFYINSPGGVVTSGMTVFDTIKMISSPVHTVCMGMAAAMGSVLLAAGTKGERSIWPNGKVMIHQPSIGGQIVAPATDLKIHAEEILKTKTKLNQILADACGHPISKLEEDTDRDYYMDAEEAIKYGIVDKLATKIDFN
As to B4, the binding result in the series “native gel or EMSA” is “binds”.

In general, stoichiometry N refers to the number of molecules, sites or subunits per partner or assembly. A word on the Kd: it is a measure of binding affinity in units of concentration.

Values taken from paper PMC6682002 (ACS Omega, 2019).
